# Patent publication EP3381935A1 (Tigo GmbH, dated 2018)
# Residue numbers refer to the chain shown, from its start. Names and notes keep the numbering of the source.
# B1: K88Q (138 aa) (ligand, human, UniProt P01579 24-161, looked up)
# chain: QDPYVKEAENLKKYFNAGHSDVADNGTLFLGILKNWKEESDRKIMQSQIVSFYFKLFKNFKDDQSIQKSVETIKEDMNVKFFNSNKKQRDDFEKLTNYSVTDLNVQRKAIHELIQVMAELSPAAKTGKRKRSQMLFRG
# notes: range 1-138; also called Control 3: K88Q(138 aa); Control 2: K88Q
# B2: reference hIFN-γ (143 aa) (ligand, human, UniProt P01579 24-161, looked up)
# chain: B1 chain with Q88K
# notes: mature; also called standard hIFN-γ; wild type hIFN-γ
# B3: anti-gamma mutant protein K88Q_T27Y (138 aa) (ligand)
# chain: B1 chain with T27Y
# notes: Expressed in E. coli as a HIS-SUMO fusion and the tag was cleaved off; Positions count on the mature 143 aa hIFN-γ
# B4: anti-gamma mutant protein K88Q_D41N (138 aa) (ligand)
# chain: B1 chain with D41N
# Target: T1, recombinant hIFN-γ receptor (the extracellular part of the IFNGR1) (human, UniProt P15260 18-245)
# T1 construct: extracellular domain; In solution for ITC; also called soluble (extracellular) part of the hIFN-γ receptor IFNGR1; interferon-gamma receptor
# T1 sequence (looked up): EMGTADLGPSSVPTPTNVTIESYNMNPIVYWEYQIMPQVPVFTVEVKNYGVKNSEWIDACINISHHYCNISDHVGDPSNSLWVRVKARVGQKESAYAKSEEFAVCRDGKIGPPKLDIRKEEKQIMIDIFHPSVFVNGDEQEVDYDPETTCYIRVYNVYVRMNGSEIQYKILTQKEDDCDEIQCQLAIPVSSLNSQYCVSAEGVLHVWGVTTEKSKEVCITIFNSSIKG
# Assay: ITC, IFNGR1 in the cell titrated with ligand, 20°C
row,Binder,Kd [nM]
1,B1,18.9
2,B2,136
3,B3,28.2

# Target: T2, hIFN-γ receptor on human amniotic WISH cells (human, UniProt P15260 18-489)
# T2 sequence (looked up): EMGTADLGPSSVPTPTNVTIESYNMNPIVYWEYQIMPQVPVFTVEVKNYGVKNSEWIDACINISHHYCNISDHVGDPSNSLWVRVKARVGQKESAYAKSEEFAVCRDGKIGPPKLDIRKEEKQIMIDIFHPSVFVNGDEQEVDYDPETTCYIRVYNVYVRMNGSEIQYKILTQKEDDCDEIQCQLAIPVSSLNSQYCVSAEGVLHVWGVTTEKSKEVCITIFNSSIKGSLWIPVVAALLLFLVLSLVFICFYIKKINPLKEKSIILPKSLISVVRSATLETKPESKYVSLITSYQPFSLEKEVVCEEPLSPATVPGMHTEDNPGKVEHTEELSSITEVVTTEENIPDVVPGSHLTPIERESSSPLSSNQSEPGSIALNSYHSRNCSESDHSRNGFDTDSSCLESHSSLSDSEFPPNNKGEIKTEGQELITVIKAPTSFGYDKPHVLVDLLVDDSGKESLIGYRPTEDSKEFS
# Assay: cell-based or functional assay
row,Binder,Competitive ability % [%]
1,B1,25
2,B4,30
3,B3,35
